B1: SLAMF7 CAR with CD28 costimulatory domain (protein)
chain: EVQLVESGGGLVQPGGSLRLSCAASGFDFSRYWMSWVRQAPGKGLEWIGEINPDSSTINYAPSLKDKFIISRDNAKNSLYLQMNSLRAEDTAVYYCARPDGNYWYFDVWGQGTLVTVSSGGGGSGGGGSGGGGSDIQMTQSPSSLSASVGDRVTITCKASQDVGIAVAWYQQKPGKVPKLLIYWASTRHTGVPDRFSGSGSGTDFTLTISSLQPEDVATYYCQQYSSYPYTFGQGTKVEIKESKYGPPCPPCPAPPVAGPSVFLFPPKPKDTLMISRTPEVTCVVVDVSQEDPEVQFNWYVDGVEVHNAKTKPREEQFQSTYRVVSVLTVLHQDWLNGKEYKCKVSNKGLPSSIEKTISKAKGQPREPQVYTLPPSQEEMTKNQVSLTCLVKGFYPSDIAVEWESNGQPENNYKTTPPVLDSDGSFFLYSRLTVDKSRWQEGNVFSCSVMHEALHNHYTQKSLSLSLGKMFWVLVVVGGVLACYSLLVTVAFIIFWVRSKRSRGGHSDYMNMTPRRPGPTRKHYQPYAPPRDFAAYRSRVKFSRSADAPAYQQGQNQLYNELNLGRREEYDVLDKRRGRDPEMGGKPRRKNPQEGLYNELQKDKMAEAYSEIGMKGERRRGKGHDGLYQGLSTATKDTYDALHMQALPPR
B2: ROR1 CAR with 4-1BB costimulatory domain (protein)
chain: QVQLVESGGALVQPGGSLTLSCKASGFDFSAYYMSWVRQAPGKGLEWIATIYPSSGKTYYAASVQGRFTISADNAKNTVYLQMNSLTAADTATYFCARDSYADDGALFNIWGQGTLVTVSSGGGGSGGGGSGGGGSQLVLTQSPSVSAALGSSAKITCTLSSAHKTDTIDWYQQLAGQAPRYLMYVQSDGSYEKRSGVPDRFSGSSSGADRYLIISSVQADDEADYYCGADYIGGYVFGGGTQLTVGESKYGPPCPPCPMFWVLVVVGGVLACYSLLVTVAFIIFWVKRGRKKLLYIFKQPFMRPVQTTQEEDGCSCRFPEEEEGGCELRVKFSRSADAPAYQQGQNQLYNELNLGRREEYDVLDKRRGRDPEMGGKPRRKNPQEGLYNELQKDKMAEAYSEIGMKGERRRGKGHDGLYQGLSTATKDTYDALHMQALPPR
B3: SLAMF7 CAR with 4-1BB costimulatory domain (protein)
chain: EVQLVESGGGLVQPGGSLRLSCAASGFDFSRYWMSWVRQAPGKGLEWIGEINPDSSTINYAPSLKDKFIISRDNAKNSLYLQMNSLRAEDTAVYYCARPDGNYWYFDVWGQGTLVTVSSGGGGSGGGGSGGGGSDIQMTQSPSSLSASVGDRVTITCKASQDVGIAVAWYQQKPGKVPKLLIYWASTRHTGVPDRFSGSGSGTDFTLTISSLQPEDVATYYCQQYSSYPYTFGQGTKVEIKESKYGPPCPPCPAPPVAGPSVFLFPPKPKDTLMISRTPEVTCVVVDVSQEDPEVQFNWYVDGVEVHNAKTKPREEQFQSTYRVVSVLTVLHQDWLNGKEYKCKVSNKGLPSSIEKTISKAKGQPREPQVYTLPPSQEEMTKNQVSLTCLVKGFYPSDIAVEWESNGQPENNYKTTPPVLDSDGSFFLYSRLTVDKSRWQEGNVFSCSVMHEALHNHYTQKSLSLSLGKMFWVLVVVGGVLACYSLLVTVAFIIFWVKRGRKKLLYIFKQPFMRPVQTTQEEDGCSCRFPEEEEGGCELRVKFSRSADAPAYQQGQNQLYNELNLGRREEYDVLDKRRGRDPEMGGKPRRKNPQEGLYNELQKDKMAEAYSEIGMKGERRRGKGHDGLYQGLSTATKDTYDALHMQALPPR

What was measured:
[1] = biological target: human SLAMF7 (human) (UniProt Q9NQ25); assay: cell-based or functional assay
[2] = biological target: human ROR1 (human) (UniProt Q01973); assay: cell-based or functional assay

Row | Binder | specific lysis of K562/SLAMF7 target cells by CD8+ CAR-T cells, no dasatinib, t=6 h [1] [%] | specific lysis of K562/SLAMF7 target cells by CD8+ CAR-T cells, no dasatinib, t=12 h [1] [%] | IFN-γ in supernatant (ELISA), CD8+ CAR-T cells co-cultured with RCH-ACV, untreated [2] [pg/mL] | proliferation index (CFSE, 72 h), CD8+ CAR-T cells co-cultured with RCH-ACV, untreated (proliferation index) [2] | specific lysis of K562/ROR1 target cells by CD8+ CAR-T cells, no dasatinib, t=10 h [2] [%] | specific lysis of K562/ROR1 target cells by CD8+ CAR-T cells, no dasatinib, up to t=5 h [2] [%] | specific lysis of ROR1+ RCH-ACV target cells by CD8+ CAR-T cells, untreated, t=8 h [2] [%]
1 | B1 | 67 | 85 | – | – | – | – | –
2 | B2 | – | – | 1310 | 2.84 | 94 | 73 | > 90
3 | B3 | 63 | 83 | – | – | – | – | –

Reference: patent US20210169880A1
